Assay results reported in US20110206702A1 (Genentech, published 2011).

T1: TAT419 polypeptide (human, UniProt P24530 27-442)
T1 construct: Full-length TAT419 on transfected cells (e.g. 293 cells) or on TAT419-expressing human melanoma cell lines; also called full-length TAT419 polypeptide; cell surface expressed TAT419 polypeptide
T1 sequence: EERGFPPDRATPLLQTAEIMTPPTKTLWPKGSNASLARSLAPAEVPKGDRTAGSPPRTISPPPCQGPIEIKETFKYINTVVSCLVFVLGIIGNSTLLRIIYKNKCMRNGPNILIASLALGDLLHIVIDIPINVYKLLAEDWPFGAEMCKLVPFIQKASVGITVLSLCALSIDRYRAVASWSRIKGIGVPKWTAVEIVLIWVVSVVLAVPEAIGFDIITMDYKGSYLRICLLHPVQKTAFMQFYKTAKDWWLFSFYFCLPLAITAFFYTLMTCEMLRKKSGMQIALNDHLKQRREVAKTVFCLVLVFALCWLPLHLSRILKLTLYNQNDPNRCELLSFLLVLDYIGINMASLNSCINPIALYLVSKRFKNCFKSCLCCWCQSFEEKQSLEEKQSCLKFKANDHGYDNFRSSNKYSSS


Target: T1, TAT419 polypeptide
Experiment: Western blots, TAT419-derived peptide variants expressed in 293 cells
Experimental: Binding analysis was also conducted to identify the approximate location of the epitopes. Several TAT419-derived peptide variants were expressed in 293 cells. Western blots were carried out using various of the murine anti-TAT419 monoclonal antibodies described herein.

Row | binding result | Binder
1 | binds | murine anti-TAT419 monoclonal antibody 5E9 (antibody, mouse IgG2a, kappa, V domains shown, also called murine 5E9) VH: QVQLLQSGAELARPGASVKLSCKASGYTFTSYWMQWVKQRPGQGLEWIGTIYPGDGDTSYAQKFKGKATLTTDKYSSTAYMQLSSLASEDSAVYYCARWGYAYDIDNWGQGTTVTVSS VL: not shown
2 | binds | humanized anti-TAT419 antibody hu5E9.v1 (antibody, human IgG1, kappa, V domains shown) VH: EVQLVESGGGLVQPGGSLRLSCAASGYTFTSYWMQWVRQAPGKGLEWIGTIYPGDGDTSYAQKFKGRATLSTDKSKNTAYLQMNSLRAEDTAVYYCARWGYAYDIDNWGQGTLVTVSS VL: DIQMTQSPSSLSASVGDRVTITCKSSQSLLDSDGKTYLNWLQQKPGKAPKRLIYLVSKLDSGVPSRFSGSGSGTDFTLTISSLQPEDFATYYCWQGTHFPYTFGQGTKVEIKR
